Experimental data from patent publication US20100172907A1 (Hoffmann-La Roche, published 2010).
Groups on a side chain read outwards from the residue. No end group written: not given here. NSMP = not defined here

T1: BSA-conjugated Aβ heptapeptide VFFAEDC (C-terminal Cys coupled to NSMP-activated BSA)
T1 construct: also called Peptide 18-23
T1 peptide: VFFAEDC

T2: BSA-conjugated Aβ heptapeptide AEFRHDC (C-terminal Cys coupled to NSMP-activated BSA)
T2 construct: also called Peptide 2-7
T2 peptide: AEFRHDC

T3: BSA-conjugated Aβ heptapeptide LVFFAEC (reading uncertain; also: BSA conjugate)
T3 construct: also called Peptide 17-22
T3 peptide: LVFFAEC([NSMP-BSA])

T4: BSA-conjugated Aβ heptapeptide FFAEDVC (C-terminal Cys coupled to NSMP-activated BSA)
T4 construct: also called Peptide 19-24
T4 peptide: FFAEDVC

B1: MS-Roche #7 Fab (Fab, V domains shown)
VH: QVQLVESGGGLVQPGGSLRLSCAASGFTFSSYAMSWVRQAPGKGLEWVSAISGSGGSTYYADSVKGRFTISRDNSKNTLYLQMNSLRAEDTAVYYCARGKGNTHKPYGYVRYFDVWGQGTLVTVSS
VL: DIVLTQSPATLSLSPGERATLSCRASQSVSSSYLAWYQQKPGQAPRLLIYGASSRATGVPARFSGSGSGTDFTLTISSLEPEDFATYYCFQLYSDPFTFGQGTKVEIKR
notes: parental HuCAL Fab; also called MSR-7 Fab; MS-R 7
B2: MS-Roche #7.2 Fab (Fab, V domains shown)
VH: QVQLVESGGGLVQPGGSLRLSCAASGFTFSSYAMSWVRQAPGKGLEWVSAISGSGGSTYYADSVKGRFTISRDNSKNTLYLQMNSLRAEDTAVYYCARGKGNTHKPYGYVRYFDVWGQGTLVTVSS
VL: DIVLTQSPATLSLSPGERATLSCRASQSVSSSYLAWYQQKPGQAPRLLIYGASSRATGVPARFSGSGSGTDFTLTISSLEPEDFATYYCQQIYSFPHTFGQGTKVEIKR
B3: MS-Roche #7.2.H1 Fab (Fab, V domains shown)
VH: QVQLVESGGGLVQPGGSLRLSCAASGFTFSSYAMSWVRQAPGKGLEWVSAINANGLKKYYADSVKGRFTISRDNSKNTLYLQMNSLRAEDTAVYYCARGKGNTHKPYGYVRYFDVWGQGTLVTVSS
VL: DIVLTQSPATLSLSPGERATLSCRASQSVSSSYLAWYQQKPGQAPRLLIYGASSRATGVPARFSGSGSGTDFTLTISSLEPEDFATYYCQQIYSFPHTFGQGTKVEIKR
B4: MS-Roche #7.2.H2 Fab (Fab, V domains shown)
VH: QVQLVESGGGLVQPGGSLRLSCAASGFTFSSYAMSWVRQAPGKGLEWVSAINGTGMKKYYADSVKGRFTISRDNSKNTLYLQMNSLRAEDTAVYYCARGKGNTHKPYGYVRYFDVWGQGTLVTVSS
VL: DIVLTQSPATLSLSPGERATLSCRASQSVSSSYLAWYQQKPGQAPRLLIYGASSRATGVPARFSGSGSGTDFTLTISSLEPEDFATYYCQQIYSFPHTFGQGTKVEIKR
B5: MS-Roche #7.2.H3 Fab (Fab, V domains shown)
VH: QVQLVESGGGLVQPGGSLRLSCAASGFTFSSYAMSWVRQAPGKGLEWVSAINANGYKTYYADSVKGRFTISRDNSKNTLYLQMNSLRAEDTAVYYCARGKGNTHKPYGYVRYFDVWGQGTLVTVSS
VL: DIVLTQSPATLSLSPGERATLSCRASQSVSSSYLAWYQQKPGQAPRLLIYGASSRATGVPARFSGSGSGTDFTLTISSLEPEDFATYYCQQIYSFPHTFGQGTKVEIKR
B6: MS-Roche #7.2.H4 Fab (Fab, V domains shown)
VH: QVQLVESGGGLVQPGGSLRLSCAASGFTFSSYAMSWVRQAPGKGLEWVSAINSKGSRIYYADSVKGRFTISRDNSKNTLYLQMNSLRAEDTAVYYCARGKGNTHKPYGYVRYFDVWGQGTLVTVSS
VL: DIVLTQSPATLSLSPGERATLSCRASQSVSSSYLAWYQQKPGQAPRLLIYGASSRATGVPARFSGSGSGTDFTLTISSLEPEDFATYYCQQIYSFPHTFGQGTKVEIKR
B7: MS-Roche #7.2.H5 Fab (Fab, V domains shown)
VH: QVQLVESGGGLVQPGGSLRLSCAASGFTFSSYAMSWVRQAPGKGLEWVSAINATGRSKYYADSVKGRFTISRDNSKNTLYLQMNSLRAEDTAVYYCARGKGNTHKPYGYVRYFDVWGQGTLVTVSS
VL: DIVLTQSPATLSLSPGERATLSCRASQSVSSSYLAWYQQKPGQAPRLLIYGASSRATGVPARFSGSGSGTDFTLTISSLEPEDFATYYCQQIYSFPHTFGQGTKVEIKR
B8: MS-Roche #7.2.L1 Fab (Fab, V domains shown)
VH: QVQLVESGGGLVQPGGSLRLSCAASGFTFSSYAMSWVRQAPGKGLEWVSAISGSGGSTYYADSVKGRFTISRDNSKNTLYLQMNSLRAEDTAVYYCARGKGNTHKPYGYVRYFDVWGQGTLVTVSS
VL: DIVLTQSPATLSLSPGERATLSCRASQYVDRTYLAWYQQKPGQAPRLLIYGASSRATGVPARFSGSGSGTDFTLTISSLEPEDFATYYCQQIYSFPHTFGQGTKVEIKR
B9: MS-Roche #7.4.H1 Fab (Fab, V domains shown)
VH: QVQLVESGGGLVQPGGSLRLSCAASGFTFSSYAMSWVRQAPGKGLEWVSAINATGYRTYYADSVKGRFTISRDNSKNTLYLQMNSLRAEDTAVYYCARGKGNTHKPYGYVRYFDVWGQGTLVTVSS
VL: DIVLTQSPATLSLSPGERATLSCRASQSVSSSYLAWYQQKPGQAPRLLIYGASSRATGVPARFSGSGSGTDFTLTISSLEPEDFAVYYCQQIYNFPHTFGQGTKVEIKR
B10: MS-Roche #7.4.H2 Fab (Fab, V domains shown)
VH: QVQLVESGGGLVQPGGSLRLSCAASGFTFSSYAMSWVRQAPGKGLEWVSAINYNGARIYYADSVKGRFTISRDNSKNTLYLQMNSLRAEDTAVYYCARGKGNTHKPYGYVRYFDVWGQGTLVTVSS
VL: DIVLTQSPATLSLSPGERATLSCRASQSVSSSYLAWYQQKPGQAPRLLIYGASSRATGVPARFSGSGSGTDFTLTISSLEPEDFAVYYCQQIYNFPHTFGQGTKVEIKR
B11: MS-Roche #7.9.H1 Fab (Fab, V domains shown)
VH: QVQLVESGGGLVQPGGSLRLSCAASGFTFSSYAMSWVRQAPGKGLEWVSAINANGQRKFYADSVKGRFTISRDNSKNTLYLQMNSLRAEDTAVYYCARGKGNTHKPYGYVRYFDVWGQGTLVTVSS
VL: DIVLTQSPATLSLSPGERATLSCRASQSVSSSYLAWYQQKPGQAPRLLIYGASSRATGVPARFSGSGSGTDFTLTISSLEPEDFATYYCLQIYNMPITFGQGTKVEIKR
notes: assembled
B12: MS-Roche #3.4.H7 Fab (Fab, V domains shown)
VH: QVQLVESGGGLVQPGGSLRLSCAASGFTFSSYAMSWVRQAPGKGLEWVSVISETGKNIYYADSVKGRFTISRDNSKNTLYLQMNSLRAEDTAVYYCARLTHYARYYRYFDVWGQGTLVTVSS
VL: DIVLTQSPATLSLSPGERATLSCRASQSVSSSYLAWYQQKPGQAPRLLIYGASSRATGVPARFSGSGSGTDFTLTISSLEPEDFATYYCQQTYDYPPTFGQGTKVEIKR
B13: MS-Roche #7.12.L1 Fab (Fab, V domains shown)
VH: QVQLVESGGGLVQPGGSLRLSCAASGFTFSSYGMSWVRQAPGKGLEWVSNISGSGSSTYYADSVKGRFTISRDNSKNTLYLQMNSLRAEDTAVYYCARGKGNTHKPYGYVRYFDVWGQGTLVTVSS
VL: DIVLTQSPATLSLSPGERATLSCRASQYVFRRYLAWYQQKPGQAPRLLISGSSNRATGVPARFSGSGSGTDFTLTISSLEPEDFAVYYCLQLYNIPNTFGQGTKVEIKR
B14: MS-Roche #3.4.L9 Fab (Fab, V domains shown)
VH: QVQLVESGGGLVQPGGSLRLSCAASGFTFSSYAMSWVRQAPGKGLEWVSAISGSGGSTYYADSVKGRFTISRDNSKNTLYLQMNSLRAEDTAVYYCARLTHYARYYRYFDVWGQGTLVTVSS
VL: DIVLTQSPATLSLSPGERATLSCRASRRIHVYYLAWYQQKPGQAPRLLIYGASSRATGVPARFSGSGSGTDFTLTISSLEPEDFATYYCQQTYDYPPTFGQGTKVEIKR
B15: MS-Roche #3.6.H3 Fab (Fab, V domains shown)
VH: QVQLVESGGGLVQPGGSLRLSCAASGFTFSSYAMSWVRQAPGKGLEWVSVISETGKFIYYADSVKGRFTISRDNSKNTLYLQMNSLRAEDTAVYYCARLTHYARYYRYFDVWGQGTLVTVSS
VL: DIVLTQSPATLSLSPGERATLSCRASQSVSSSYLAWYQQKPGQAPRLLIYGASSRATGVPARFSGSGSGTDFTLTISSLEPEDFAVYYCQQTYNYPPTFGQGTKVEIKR
B16: MS-Roche #3.6.L2 Fab (Fab, V domains shown)
VH: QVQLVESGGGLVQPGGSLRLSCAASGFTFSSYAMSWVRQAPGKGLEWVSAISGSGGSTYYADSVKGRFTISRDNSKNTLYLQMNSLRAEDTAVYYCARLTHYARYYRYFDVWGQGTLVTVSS
VL: DIVLTQSPATLSLSPGERATLSCRASQFLSRYYLAWYQQKPGQAPRLLIYGASSRATGVPARFSGSGSGTDFTLTISSLEPEDFAVYYCQQTYNYPPTFGQGTKVEIKR
B17: MS-Roche #3.4.H2 Fab (Fab, V domains shown)
VH: QVQLVESGGGLVQPGGSLRLSCAASGFTFSSYAMSWVRQAPGKGLEWVSVIDMVGHTYYADSVKGRFTISRDNSKNTLYLQMNSLRAEDTAVYYCARLTHYARYYRYFDVWGQGTLVTVSS
VL: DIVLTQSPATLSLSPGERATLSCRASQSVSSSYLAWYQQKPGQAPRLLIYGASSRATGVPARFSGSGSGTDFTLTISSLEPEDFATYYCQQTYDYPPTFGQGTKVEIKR
notes: H-CDR2 printed with 16 residues

Tests used:
human Aβ (1-40) peptide = biological target: T5, human Aβ (1-40) peptide (human); assay: SPR, immobilized fibers;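 further: biacore SPR using in vitro grown Aβ1-40 or Aβ1-42 fibrils immobilized on the chip with Fab analytes, KD from koff/kon fits or equilibrium isotherms based on total Fab concentration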
T5 construct: also called Aβ1-40 fibers
Experimental: (§1) Biacore2000 and Biacore3000 instruments were used for these measurements. Aβ1-40 and Aβ1-42 fibers were generated in vitro by incubation of synthetic peptides at a concentration of 200 μg/ml in 10 mM Na-acetate buffer (pH 4.0) for three days at 37° C. […] For binders with slow kinetics KD values were calculated by curve fitting of the time-dependent sensor responses, i.e. from the ratio of koff/kₒₙ. Binders with fast kinetics were analyzed by fitting the concentration-dependent sensor responses at equilibrium (adsorption-isotherms). KD values were calculated from the Biacore sensograms based on the total Fab concentration as determined by a protein assay. […] Briefly, time-dependent protein binding to Aβ1-40 fibers immobilized on the Biacore chip was measured during the association phase under mass-limited conditions at different flow rates of the analyte solution.

Aβ (1-42) peptide = biological target: T6, Aβ (1-42) peptide (human); assay: SPR, immobilized fibers;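 further: biacore SPR using in vitro grown Aβ1-40 or Aβ1-42 fibrils immobilized on the chip with Fab analytes, KD from koff/kon fits or equilibrium isotherms based on total Fab concentration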
T6 construct: also called Aβ1-42 fibers; Aβ4
Experimental: as §1

[1] = biological target: T1, BSA-conjugated Aβ heptapeptide VFFAEDC; assay: ELISA
[2] = biological target: T2, BSA-conjugated Aβ heptapeptide AEFRHDC; assay: ELISA
[3] = biological target: T3, BSA-conjugated Aβ heptapeptide LVFFAEC; assay: ELISA
[4] = biological target: T4, BSA-conjugated Aβ heptapeptide FFAEDVC; assay: ELISA
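Wherever OD ratio 17-22/BSA is given: ELISA of antibody at 10 or 2 µg/ml binding plate-coated BSA–peptide conjugates, detected with HRP anti-human Ig and TMB colour, mock-treated BSA without peptide as negative control.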
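Wherever OD ratio 18-23/BSA is given: ELISA of antibody at 10 or 2 µg/ml binding plate-coated BSA–peptide conjugates, detected with HRP anti-human Ig and TMB colour, mock-treated BSA without peptide as negative control.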
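Wherever OD ratio 2-7/BSA is given: ELISA of antibody at 10 or 2 µg/ml binding plate-coated BSA–peptide conjugates, detected with HRP anti-human Ig and TMB colour, mock-treated BSA without peptide as negative control.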
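Wherever Peptide-ratio 18-23/2-7 is given: ELISA of antibody at 10 or 2 µg/ml binding plate-coated BSA–peptide conjugates, detected with HRP anti-human Ig and TMB colour, mock-treated BSA without peptide as negative control.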

| Binder | Kd (human Aβ (1-40) peptide) [nM] | Kd (Aβ (1-42) peptide) [nM] | OD ratio 18-23/BSA [1] | Peptide-ratio 18-23/2-7 [1] | OD ratio 2-7/BSA [2] | OD ratio 17-22/BSA [3] | Peptide-ratio 17-22/2-7 [3] | OD ratio 19-24/BSA [4] | Peptide-ratio 19-24/2-7 [4] |
| --- | --- | --- | --- | --- | --- | --- | --- | --- | --- |
| B1 | 1100 | 1710 | 7 | 0.29 | 24 | 4 | 0.17 | 4 | 0.17 |
| B2 | 22 | 58 | 16 | 0.47 | 34 | 12 | 0.35 | 9 | 0.26 |
| B3 | 9.3 | 10.2 | 11 | 0.29 | 38 | 8 | 0.21 | 9 | 0.24 |
| B4 | 8.2 | 8.2 | 10 | 0.63 | 16 | 10 | 0.63 | 10 | 0.63 |
| B5 | 45.4 | 5.3 | 20 | 0.61 | 33 | 17 | 0.52 | 18 | 0.55 |
| B6 | 5.9 | 5 | 13 | 0.57 | 23 | 12 | 0.52 | 12 | 0.52 |
| B7 | 8 | 10.1 | 18 | 0.6 | 30 | 13 | 0.43 | 15 | 0.5 |
| B8 | 13.3 | 12.7 | 16 | 0.68 | 24 | 14 | 0.57 | 11 | 0.45 |
| B9 |  |  | 20 | 0.65 | 31 | 16 | 0.52 | 16 | 0.51 |
| B10 | 9.9 | 6.2 | 20 | 0.56 | 36 | 17 | 0.47 | 16 | 0.46 |
| B11 |  |  | 12 | 0.36 | 32 | 7 | 0.23 | 6 | 0.19 |
| B12 | 19.2 | 31.7 | 6 | 0.25 | 24 |  |  | 5 | 0.21 |
| B13 |  | 3.8 | 12 | 0.7 | 16 | 10 | 0.6 | 10 | 0.59 |
| B14 | 16.3 | 9.1 |  |  |  |  |  |  |  |
| B15 | 5.4 | 7.5 |  |  |  |  |  |  |  |
| B16 | 13.7 | 13.1 |  |  |  |  |  |  |  |
| B17 |  |  | 1 | 0.06 | 16 | 11 | 0.69 | 1 | 0.06 |
